Results reported in PMC9959916, “A Highly Conserved Region in BRCA2 Suppresses the RAD51-Interaction Activity of BRC Repeats” (Veterinary Sciences, 2023).
Residue numbers refer to the chain shown, from its start.

B1: Gal4 DNA-binding domain-fused cBRC1-HCR-BRC2 (canine BRCA2 993–1248 aa) [canine (Canis lupus familiaris)] / VP16-fused canine RAD51 [canine] (parent complex)
chain 1: PISNHSFENGFKTASNKEIKLSENNIRKSKMLFKDIEEHYPTNLACLEIVNTSSLESQKKPSKSHALDPQSINIISGFVQNSTYVSDSESGHTAPPTLSLKQDFDSNRNLTPSQKAEITELSTILEESGSQFEFTQFRKPSHIIQKNPFEMPENQLTILNSTSKEWKDDDLHLTTNAPSISQVDSKKSEGIIGGKQKFACLSRTSCNRSASGYSTDKNEVEFRGFYSARGTKLNVGSEALQKAKKLFSDLENINEE
chain 2: MAMQMQLEANADTSVEEESFGPQPISRLEQCGINANDVKKLEEAGFHTVEAVAYAPKKELISIKGISEAKADKILTEAAKLVPMGFTTATEFHQRRSEIIQITTGSKELDKLLQGGIETGSITEMFGEFRTGKTQICHTLAVTCQLPIDRGGGEGKAMYIDTEGTFRPERLLAVAERYGLSGSDVLDNVAYARGFNTDHQTQLLYQASAMMVESRYALLIVDSATALYRTDYSGRGELSARQMHLARFLRMLLRLADEFGVAVVITNQVVAQVDGAAMFAADPKKPIGGNIIAHASTTRLYLRKGRGETRICKIYDSPCLPEAEAMFAINADGVGDAKD
B2: FLAG-HA-NLS-fused cBRC1-HCR-BRC2 (canine BRCA2 993–1248 aa) [canine (Canis lupus familiaris)] / endogenous RAD51 (HeLa cells) [human (endogenous in HeLa)] (parent complex)
chain 1: B1 chain 1
chain 2: B1 chain 2 with S62N, T76A, G194A

Variants of: B1
Assay: mammalian two-hybrid assay; n = 4; parent: 3.1; read off a plot

Variant | response
chain 1 S122P | ~2.6 Firefly/Renilla
chain 1 T123P | ~2 Firefly/Renilla
chain 1 I118M | ~3.3 Firefly/Renilla

Variants of: B2
Assay: co-immunoprecipitation (anti-FLAG IP, Western blot quantification); lysates from HeLa cells stably expressing the FLAG-HA-NLS-fused peptide; parent: 1

Variant | ratio to parent
chain 1 I118M | 0.92
chain 1 S122P | 0.52
chain 1 T123P | 0.57
